Measured values: the supplement of paper PMC9112550, “Optimization of the antimicrobial peptide Bac7 by deep mutational scanning” (BMC Biology, 2022)

Tested on: Escherichia coli TOP10
Test: shrunken log2 fold change of peptide-encoding DNA abundance (4.5 h post-induction vs induction); higher = less antimicrobial activity (less host growth inhibition)
Conditions: time post-induction: 4.5 h; library: site-saturation at positions 5, 18, 19, 20
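Further: peptides expressed intracellularly from a pBAD plasmid library in pooled LB shake-flask culture, induced with 0.3% L-arabinose, DNA abundance read by NGS, three biological replicates, DESeq2 with apeglm shrinkage.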

| Sequence | shrunken log2 fold change |
| --- | --- |
| RRIRNRPPRLPRPRPRPKPQPRP | 0.41 |
| RRIRHRPPRLPRPRPRPAMFPRP | 0.0207 |
| RRIRTRPPRLPRPRPRPVDLPRP | -0.0153 |
| RRIRTRPPRLPRPRPRPDPLPRP | -0.145 |
| RRIRSRPPRLPRPRPRPEPEPRP | 0.102 |
| RRIRRRPPRLPRPRPRPSIYPRP | -0.449 |
| RRIRCRPPRLPRPRPRPENQPRP | -0.0366 |
| RRIRWRPPRLPRPRPRPWPMPRP | -0.0421 |
| RRIRGRPPRLPRPRPRPVDYPRP | -0.0159 |
| RRIRKRPPRLPRPRPRPKDDPRP | 0.0898 |
| RRIRARPPRLPRPRPRPKFEPRP | 0.574 |
| RRIRMRPPRLPRPRPRPSSLPRP | -0.156 |
| RRIRDRPPRLPRPRPRPRDVPRP | 0.128 |
| RRIRPRPPRLPRPRPRPTPGPRP | 0.533 |
| RRIRTRPPRLPRPRPRPPPSPRP | 1.16 |
| RRIRKRPPRLPRPRPRPSFWPRP | 0.299 |
| RRIRVRPPRLPRPRPRPQQWPRP | 0.0185 |
| RRIRKRPPRLPRPRPRPLNNPRP | -0.0972 |
| RRIRMRPPRLPRPRPRPVPRPRP | 0.606 |
| RRIRCRPPRLPRPRPRPPIMPRP | -0.0556 |
| RRIRERPPRLPRPRPRPLGKPRP | 0.189 |
| RRIRFRPPRLPRPRPRPNARPRP | 0.241 |
| RRIRSRPPRLPRPRPRPYEEPRP | -0.932 |
| RRIRSRPPRLPRPRPRPERLPRP | 0.131 |
| RRIRPRPPRLPRPRPRPGPCPRP | 0.363 |

| Sequence | shrunken log2 fold change |
| --- | --- |
| RRIRGRPPRLPRPRPRPQLSPRP | 0.0797 |
| RRIRYRPPRLPRPRPRPCCDPRP | -0.479 |
| RRIRYRPPRLPRPRPRPPQSPRP | -0.118 |
| RRIRLRPPRLPRPRPRPSFNPRP | -0.529 |
| RRIRYRPPRLPRPRPRPDITPRP | -0.385 |
| RRIRLRPPRLPRPRPRPYYPPRP | -0.117 |
| RRIRFRPPRLPRPRPRPDSTPRP | -0.596 |
| RRIRHRPPRLPRPRPRPKTLPRP | -0.984 |
| RRIRNRPPRLPRPRPRPLPGPRP | 0.143 |
| RRIRARPPRLPRPRPRPAWWPRP | 0.895 |
| RRIRERPPRLPRPRPRPCMLPRP | -0.241 |
| RRIRHRPPRLPRPRPRPIQLPRP | 0.128 |
| RRIRFRPPRLPRPRPRPGVVPRP | 0.231 |
| RRIRHRPPRLPRPRPRPKHEPRP | -0.156 |
| RRIRMRPPRLPRPRPRPFASPRP | 0.0812 |
| RRIRERPPRLPRPRPRPMFQPRP | -0.952 |
| RRIRIRPPRLPRPRPRPGPYPRP | -0.376 |
| RRIRYRPPRLPRPRPRPQFLPRP | -0.132 |
| RRIRQRPPRLPRPRPRPCDTPRP | -0.435 |
| RRIRDRPPRLPRPRPRPIHGPRP | -0.0134 |
| RRIRRRPPRLPRPRPRPAISPRP | -0.0296 |
| RRIRKRPPRLPRPRPRPSQMPRP | 0.247 |
| RRIRARPPRLPRPRPRPWQRPRP | 0.000557 |
| RRIRKRPPRLPRPRPRPQWNPRP | -0.105 |
| RRIRGRPPRLPRPRPRPLPTPRP | 1.14 |

| Sequence | shrunken log2 fold change |
| --- | --- |
| RRIRPRPPRLPRPRPRPKILPRP | 0.0456 |
| RRIRKRPPRLPRPRPRPWQHPRP | -0.0281 |
| RRIRERPPRLPRPRPRPQHSPRP | -0.597 |
| RRIRRRPPRLPRPRPRPLHHPRP | 0.31 |
| RRIRRRPPRLPRPRPRPTKMPRP | 0.248 |
| RRIRFRPPRLPRPRPRPPTYPRP | -0.0496 |
| RRIRPRPPRLPRPRPRPVVAPRP | 0.578 |
| RRIRNRPPRLPRPRPRPIIVPRP | -0.286 |
| RRIRCRPPRLPRPRPRPGGRPRP | 0.404 |
| RRIRKRPPRLPRPRPRPLMIPRP | -0.171 |
| RRIRPRPPRLPRPRPRPRTWPRP | 0.537 |
| RRIRQRPPRLPRPRPRPTYTPRP | -0.346 |
| RRIRHRPPRLPRPRPRPVQMPRP | 0.0393 |
| RRIRSRPPRLPRPRPRPQELPRP | -0.107 |
| RRIRFRPPRLPRPRPRPVALPRP | -0.128 |
| RRIRIRPPRLPRPRPRPLSNPRP | -0.893 |
| RRIRRRPPRLPRPRPRPDKSPRP | 0.00757 |
| RRIRRRPPRLPRPRPRPITEPRP | 0.0622 |
| RRIRGRPPRLPRPRPRPWGHPRP | 0.152 |
| RRIRNRPPRLPRPRPRPDHWPRP | 0.0703 |
| RRIRPRPPRLPRPRPRPVQNPRP | -0.234 |
| RRIRIRPPRLPRPRPRPHQIPRP | -0.423 |
| RRIRMRPPRLPRPRPRPCETPRP | -0.263 |
| RRIRTRPPRLPRPRPRPLPNPRP | 0.203 |
| RRIRIRPPRLPRPRPRPISWPRP | -0.392 |

| Sequence | shrunken log2 fold change |
| --- | --- |
| RRIRPRPPRLPRPRPRPMTSPRP | 0.0205 |
| RRIRTRPPRLPRPRPRPWCTPRP | -0.275 |
| RRIRKRPPRLPRPRPRPDLAPRP | 0.042 |
| RRIRIRPPRLPRPRPRPTHPPRP | 0.225 |
| RRIRWRPPRLPRPRPRPVFAPRP | 0.394 |
| RRIRSRPPRLPRPRPRPFFLPRP | -0.16 |
| RRIRWRPPRLPRPRPRPPPTPRP | 1.59 |
| RRIRPRPPRLPRPRPRPGNHPRP | -0.16 |
| RRIRERPPRLPRPRPRPNNNPRP | -0.977 |
| RRIRDRPPRLPRPRPRPFLNPRP | -0.243 |
| RRIRCRPPRLPRPRPRPMHFPRP | 0.102 |
| RRIRERPPRLPRPRPRPWDKPRP | -0.00884 |
| RRIRERPPRLPRPRPRPAKPPRP | -0.248 |
| RRIRKRPPRLPRPRPRPPAKPRP | 0.408 |
| RRIRMRPPRLPRPRPRPWGVPRP | 0.187 |
| RRIRRRPPRLPRPRPRPLAHPRP | 0.223 |
| RRIRGRPPRLPRPRPRPTWYPRP | 0.159 |
| RRIRGRPPRLPRPRPRPLPAPRP | 1.33 |
| RRIRQRPPRLPRPRPRPELKPRP | 0.0791 |
| RRIRFRPPRLPRPRPRPCFGPRP | -0.0611 |
| RRIRIRPPRLPRPRPRPMRNPRP | 0.167 |
| RRIRRRPPRLPRPRPRPVGWPRP | 0.666 |
| RRIRCRPPRLPRPRPRPVTFPRP | -0.294 |
| RRIRPRPPRLPRPRPRPKYPPRP | -0.672 |
| RRIRFRPPRLPRPRPRPDWFPRP | -0.32 |

| Sequence | shrunken log2 fold change |
| --- | --- |
| RRIRGRPPRLPRPRPRPCVAPRP | 1.1 |
| RRIRIRPPRLPRPRPRPPTCPRP | -0.278 |
| RRIRHRPPRLPRPRPRPFEEPRP | 0.0124 |
| RRIRYRPPRLPRPRPRPLVVPRP | -0.72 |
| RRIRHRPPRLPRPRPRPHGMPRP | -0.000911 |
| RRIRMRPPRLPRPRPRPSYFPRP | -0.293 |
| RRIRDRPPRLPRPRPRPVHCPRP | -0.0301 |
| RRIRYRPPRLPRPRPRPECCPRP | -0.0698 |
| RRIRSRPPRLPRPRPRPDIQPRP | -0.274 |
| RRIRSRPPRLPRPRPRPVLTPRP | -0.0627 |
| RRIRIRPPRLPRPRPRPTATPRP | 0.0371 |
| RRIRKRPPRLPRPRPRPFMPPRP | -0.0694 |
| RRIRNRPPRLPRPRPRPIFVPRP | -0.0459 |
| RRIRIRPPRLPRPRPRPEHQPRP | -0.0287 |
| RRIRHRPPRLPRPRPRPLCAPRP | -0.0531 |
| RRIRYRPPRLPRPRPRPTAIPRP | -0.774 |
| RRIRSRPPRLPRPRPRPEANPRP | 0.542 |
| RRIRWRPPRLPRPRPRPECAPRP | 0.852 |
| RRIRMRPPRLPRPRPRPTTKPRP | 0.268 |
| RRIRARPPRLPRPRPRPWDWPRP | 0.991 |
| RRIRLRPPRLPRPRPRPSGVPRP | -0.0863 |
| RRIRNRPPRLPRPRPRPSLWPRP | 0.159 |
| RRIRERPPRLPRPRPRPQYHPRP | -0.172 |
| RRIRIRPPRLPRPRPRPPAAPRP | 0.458 |
| RRIRMRPPRLPRPRPRPCKYPRP | -0.0297 |
